The values below come from the supplement of paper PMC10567573.

The data set can be described thus: protein stability index of a GFP-peptide fusion (GPS, HEK-293T) (PSI 1-6); higher = more stable.
Where [1] appears, read: treatment: DMSO, c terminus: a fixed tail appended.
[2] abbreviates: treatment: MLN4924 1 uM, 8 h, c terminus: a fixed tail appended.

± gives the standard deviation.
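Also: 24-mer peptide tiles fused after GFP, lentivirally expressed, FACS-sorted into six equal bins by GFP/DsRed ratio, decoded by Illumina sequencing, PSI is the read-weighted mean bin number.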

Consider CIDFNKNLNEDDTFLVFSKAELGA, for which the protein stability index was 2.88 ± 0.63 under setting [1] and 2.81 ± 0.24 under setting [2].
As to VKARKQEIIKVTEQLIEAINNGDF [CAMK2D], the protein stability index was found to be 2.59 ± 0.28 under setting [1] and 2.93 ± 0.3 under setting [2].
LMTSKPAEVVKILQTMLRQSAFLH [INTS4] yielded a protein stability index under setting [1] of 2.78 ± 0.41 and a protein stability index under setting [2] of 2.43 ± 0.29.
As to SGSRVRVGFRLCNSTGGDCFYRGY [SCNN1D], the protein stability index runs as follows: under setting [1], 2.18 ± 0.21; under setting [2], 2.38 ± 0.49.
The like results for DLCLLYPPFMIALACLHVACVVQQ [CCNC] were, in that order, 3.11 ± 0.28 and 3.12 ± 0.24.
With GSGADRIYDLNIPAFVKFAYVAER [NCK2], the protein stability index is 2.35 ± 0.29 under setting [1] and 2.36 ± 0.13 under setting [2].
For NLSYKQVKTWFQNQRMKSKRWQKN [NANOGP8], the protein stability index is, setting by setting: under setting [1], 2.54 ± 0.23; under setting [2], 2.57 ± 0.33.
On to RNEGVSSVLLGASNADQLMENIGA [KCNAB2], for which the protein stability index runs as follows: under setting [1], 4.25 ± 0.09; under setting [2], 4.42 ± 0.12.
VETARSHQRSSSESYTQSFQSRKP [PI4K2A]: the protein stability index under setting [1] amounted to 5 ± 0.33 and the protein stability index under setting [2] was found to be 5.04 ± 0.29.
Consider VYHPSPEESRDPTLYANNVQRVMA [LPCAT4], for which the protein stability index is 3.6 ± 0.13 under setting [1] and 3.81 ± 0.12 under setting [2].
Regarding VTQNSTAEPSRFSSSDSDFDDEEP [FCHO1], the protein stability index turned out to be 5.52 ± 0.25 under setting [1] and 5.55 ± 0.14 under setting [2].
For the sequence SKPCDLHCTTVDGQRQLMVPARDG [ADAMTSL2], the protein stability index stood at 4.33 ± 0.11 under setting [1] and 4.37 ± 0.36 under setting [2].
For MIHGRSVLHIVASLIILHLSGATK [NETO1], the protein stability index is, setting by setting: under setting [1], 3.03 ± 0.24; under setting [2], 3.02 ± 0.54.
The sequence FKPKLYKGDRGLPLEGSAKGKVQA [RBBP5] gave a protein stability index under setting [1] of 3.96 ± 0.44 and a protein stability index under setting [2] of 3.98 ± 0.27.
As to KSNVLKLKTADWRVFLFQAPSKEE [PSD2], the protein stability index under setting [1] was 2.33 ± 0.077 and the protein stability index under setting [2] is 2.44 ± 0.28.
The corresponding values for EEEGPSTFPDLESEFQAALSRKVA [MAGEA3] are 4.95 ± 0.22 and 5.12 ± 0.22.
On to PGGVYAGPEPPPVYTNLSSYSPAS [JUNB], for which the protein stability index reads like this: under setting [1], 3.94 ± 0.27; under setting [2], 4.18 ± 0.41.
For the sequence GSYGGFASAPTTPCQKSPNGVRVF [TRIM9], the protein stability index stood at 3.17 ± 0.18 under setting [1] and 3.25 ± 0.24 under setting [2].
FQGQKTELNNCISMLVAGNDRVQT [TRIM63]: the protein stability index was found to be 3.13 ± 0.15 under setting [1] and 3.41 ± 0.42 under setting [2].
LPYLEHVGHNHTYNMAPSALDSAD [NFE2L1] came in with a protein stability index under setting [1] of 4.42 ± 0.15 and a protein stability index under setting [2] of 4.44 ± 0.11.
As to IKRLVGSDQETLRIHERLVAGSLA [SLC25A25], the protein stability index is, setting by setting: under setting [1], 2.74 ± 0.31; under setting [2], 2.62 ± 0.18.
SGRFIVIIPRTVIDGLDLLKKEHP [SMG5]: the protein stability index was 2.9 ± 0.55 under setting [1] and 3.31 ± 0.78 under setting [2].
Turning to ELDAIIEEVDEDGSGTIDFEEFLV [TNNC2], the protein stability index reads like this: under setting [1], 4.4 ± 0.22; under setting [2], 4.33 ± 0.23.
On to AGGSSSTPTPQALYPDLSCPEGLE [SPSB2], for which the protein stability index worked out at 5.15 ± 0.31 under setting [1] and 5.21 ± 0.25 under setting [2].
The like results for WSRNSKPVHTTILNPHIHLMGDES [CAMK2A] were, in that order, 3.4 ± 0.28 and 3.53 ± 0.08.
Turning to AQQIRLHHFNSSHLEIDDMYTPAY [MYORG], the protein stability index was found to be 2.86 ± 0.26 under setting [1] and 2.91 ± 0.21 under setting [2].
Turning to DIFPELDDILYHVKGMQRIVNQWS [DLC1], the protein stability index by setting is: under setting [1], 2.42 ± 0.13; under setting [2], 2.49 ± 0.12.
On to PIVPKIAGDGDTSNFETYPENDWD [PRKX], for which the protein stability index under setting [1] worked out at 5.51 ± 0.17 and the protein stability index under setting [2] worked out at 5.37 ± 0.32.
Consider LLGAVNFFVSSINTLVTKTMEDTL [ARFIP2], for which the protein stability index is, setting by setting: under setting [1], 3.13 ± 0.21; under setting [2], 3.07 ± 0.26.
NPAVRTAAANAAAGAAENAFRAP [SCAMP3]: the protein stability index worked out at 3.08 ± 0.69 (treatment: DMSO, c terminus: native) and 3.36 ± 0.55 (treatment: MLN4924 1 uM, 8 h, c terminus: native).
Regarding ATYRRLLEGEDAHLSSQQASGQSY [KRT16], the protein stability index reads like this: under setting [1], 4.46 ± 0.22; under setting [2], 4.4 ± 0.29.
Take PVTPLGLQNEVPPQPDPVFLEALS [SERTAD3]: the protein stability index under setting [1] came out at 4.55 ± 0.33 and the protein stability index under setting [2] was 4.46 ± 0.27.
The corresponding values for YVKAKKSIDKDEEFAGSSPQSSKS [FAN1] are 3.57 ± 0.67 and 4.16 ± 0.65.
The like results for TKLSLLAIHGYTVWAHNLIAIARL [FBXO33] were, in that order, 3.19 ± 0.36 and 3.22 ± 0.23.
With EDDAQSRRDEQDDDDKGDSKETRL [GOLPH3], the protein stability index under setting [1] is 5.54 ± 0.21 and the protein stability index under setting [2] was found to be 5.66 ± 0.17.
For KLLHIYYQNSIDDRLLVERIFAQY [PDS5B], the protein stability index was 2.68 ± 0.63 under setting [1] and 3.39 ± 0.59 under setting [2].
Consider YRFFKYIENRDVAKSVLKERGLKK [BTBD10], for which the protein stability index amounted to 2.44 ± 0.25 under setting [1] and 2.52 ± 0.3 under setting [2].
Turning to SIGRRRTELRRSGSSRSPGSKARA [PLEKHN1], the protein stability index amounted to 4.88 ± 0.47 under setting [1] and 4.95 ± 0.27 under setting [2].
In the case of IDNARLAADDFRLKYENELALRQG [KRT15], the protein stability index turned out to be 4.24 ± 0.28 under setting [1] and 4.28 ± 0.45 under setting [2].
In the case of RVFSQGSHAWEVALGGLQSWRVGV [TRIM35], the protein stability index reads like this: under setting [1], 2.46 ± 0.42; under setting [2], 2.31 ± 0.38.
As for WEQTHLTYRIENYTPDLPRADVDH [MMP1], the protein stability index is, setting by setting: under setting [1], 3.95 ± 0.31; under setting [2], 3.53 ± 0.3.
The corresponding values for SSSGDLADLENEDIFPELDDILYH [DLC1] are 4.77 ± 0.24 and 4.76 ± 0.2.
CANFGDQGITMGCWDMYRHDIDCQ [LOXL2] gave a protein stability index under setting [1] of 2.42 ± 0.29 and a protein stability index under setting [2] of 2.6 ± 0.57.
The like results for WIVDKQHVYIGSAGLDWQSLGQMK [PLD5] were, in that order, 2.44 ± 0.42 and 2.16 ± 0.24.
As for FHYLVFDLVTGGELFEDIVAREYY [CAMK2B], the protein stability index came out at 3.21 ± 0.4 under setting [1] and 3.05 ± 1 under setting [2].
As to DLGLAPRELAERGVRIVSRGRTQL [PCDHGA10], the protein stability index was found to be 3.75 ± 0.16 under setting [1] and 3.81 ± 0.25 under setting [2].
EEEISETGELVGPFVSAMPTPMPH [ZBED2]: the protein stability index reads like this: under setting [1], 5.1 ± 0.2; under setting [2], 5.17 ± 0.15.
Consider MSHKQIYYSDKYDDEEFEYRHVML [CKS1B], for which the protein stability index runs as follows: under setting [1], 2.52 ± 0.17; under setting [2], 2.66 ± 0.18.
Take SSTNFAMKRDVQEGQARCLAHLGR [C8orf76]: the protein stability index is, setting by setting: under setting [1], 3.66 ± 0.058; under setting [2], 3.68 ± 0.28.
Turning to SFIITLGCNSVLIQFATPNDFCSF [CARM1], the protein stability index is, setting by setting: under setting [1], 3.3 ± 0.25; under setting [2], 2.75 ± 0.45.
EDQHRLYQQIKAGAYDFPSPEWDT [CAMK2D] came in with a protein stability index under setting [1] of 4.36 ± 0.26 and a protein stability index under setting [2] of 4.42 ± 0.21.
The corresponding values for PRVPEEAAQDRPMSPGDCPPETTE [YJU2B] are 5.46 ± 0.26 and 5.4 ± 0.37.
With PKPLTRKPILLQRMEGSQEVVNMA [WDFY2], the protein stability index by setting is: under setting [1], 3.66 ± 0.049; under setting [2], 3.65 ± 0.41.
Take VKVVLIPVGQEIVIPFKVDTILKY [IQUB]: the protein stability index runs as follows: under setting [1], 3.98 ± 0.88; under setting [2], 2.5 ± 0.79.
For the sequence ARIYEETLNILLYEAQDGRGPDNA [KCTD10], the protein stability index was found to be 3.23 ± 0.28 under setting [1] and 3.04 ± 0.6 under setting [2].
For the sequence QDEEMLELPAPAEVAAKNQSLEGD [MLH1], the protein stability index reads like this: under setting [1], 5.37 ± 0.59; under setting [2], 5.66 ± 0.17.
Take NLWYSFQDEEDMFMVVDLLLGGDL [STK32A]: the protein stability index is, setting by setting: under setting [1], 2.41 ± 0.69; under setting [2], 2.2 ± 0.39.
Take FFFLRMDENYNLLPHGVNFQDAIF [CCDC3]: the protein stability index reads like this: under setting [1], 2.79 ± 0.43; under setting [2], 2.97 ± 0.76.
For the sequence YRNLTHNPPSDFSFQNMNSKRKAE [STK38L], the protein stability index is 4.47 ± 0.17 under setting [1] and 4.58 ± 0.087 under setting [2].
Turning to AGNDPYCFVEFHEHRHAAAALAAM [TIA1], the protein stability index worked out at 2.66 ± 0.17 under setting [1] and 2.7 ± 0.25 under setting [2].
SPLCLIPMVTSPREEQQLLASTSK [KCTD13]: the protein stability index was 4.1 ± 0.29 under setting [1] and 4.37 ± 0.06 under setting [2].
Regarding GWVSGQLRYSVVEESEPGTLVGNV [PCDHGC5], the protein stability index came out at 3.03 ± 0.24 under setting [1] and 3.07 ± 0.22 under setting [2].
Take EPSELDNPFQDPAVIQHRPSRQYA [SCAMP3]: the protein stability index under setting [1] came out at 4.67 ± 0.22 and the protein stability index under setting [2] is 4.77 ± 0.13.
The corresponding values for SEKASKKYVSKELAKEIRVKAEPF [EIF5] are 4.29 ± 0.28 and 4.36 ± 0.18.
Consider VIDGATALWCAAGAGHFEVVKLLV [FEM1B], for which the protein stability index was found to be 2.49 ± 0.89 under setting [1] and 2.36 ± 0.35 under setting [2].
Take ATSVTVPGAGVPSGSGGTVAPATM [ZBTB22]: the protein stability index by setting is: under setting [1], 4.7 ± 0.38; under setting [2], 4.64 ± 0.43.
Regarding LYVVGGQSNYDTKGKTAVDTVFRF [KLHL13], the protein stability index is, setting by setting: under setting [1], 2.5 ± 0.2; under setting [2], 1.98 ± 0.31.
In the case of ISEAQLKDRETSKVIYDFIEKTGG [WASL], the protein stability index by setting is: under setting [1], 3.42 ± 0.13; under setting [2], 3.67 ± 0.15.
The like results for LSTFSVPYFLFQHWATGYSKSSHP [SOAT1] were, in that order, 2.11 ± 0.4 and 2.56 ± 0.79.
As to PCSFVCWYRPMYKAFRSDSSFNFF [SCAMP3], the protein stability index is, setting by setting: under setting [1], 2.86 ± 0.77; under setting [2], 2.6 ± 0.5.
On to RLNIKKDDEFFHFVLLCFAIGALL [TMEM40], for which the protein stability index under setting [1] was determined as 2.73 ± 0.8 and the protein stability index under setting [2] came out at 2.19 ± 0.54.
For the sequence FLDLLSVFSDTATPDIKSHYAFRI [CIB1], the protein stability index runs as follows: under setting [1], 2.86 ± 0.6; under setting [2], 2.85 ± 0.76.
